This is an account of results in PMC10833452 (Protein & Cell, 2023).

Experiment [1] deals with T1, SARS-CoV-2 wild-type spike protein ectodomain, prefusion-stabilized trimer (WT-S) (SARS-CoV-2 prototype (MN908947), UniProt P0DTC2, proline substitution at 986 | proline substitution at 987 | GSAS substitution …). Nature of the experiment: SPR. The following applies: both partners purified.
The target of experiment [2] is T1, SARS-CoV-2 wild-type spike protein …. Nature of the experiment: cryo-EM structure. Particulars: both partners purified.

B1: 8H12 monoclonal antibody (mouse IgG) (antibody, V domains shown)
VH: EVKLEESGGGLVQPGGSMKLSCAASGFTFSDAWMDWVRQSPEKGLEWVAQIRRKANNHATYYAESVKGRFTISRDDSKSSVYLQMNSLRAEDTGIYYCIRGMTYAMDFWGQGTSVTVSS
VL: DIVMTQFQKFMSTSVGDRVSITCKASQNVRTAVAWYQQKPGQSPKAMIYLASNRHRGVPDRFTGSGCGTDFTLTISNVQCEDLADYFCLQHRNYPLTFGGGTKLEIK
Regarding B1, in experiment [1], the binding result is listed as “binds”.

B2: VacW-209 recombinant antibody (human IgG constant region) (antibody, V domains shown)
VH: QVQLVESGGGVVQPGRSLRLSCAASGFTFSSIAMHWVRQAPGKGLEWVAVMSFDGSIKYYGDSVKGRFTISRDNSKSTLYLQMNSLRAEDTAVYYCARGVQGYYDRSGYYNLDYNYGMDVWGQGTTVTVSS
VL: QSVLTQPPSVSGAPGQRVTISCTGSSSNIGAGYDVHWYQQLPGTAPKLLIYGNSNRPSGVPDRFSGSKSGTSASLAITGLQAEDEADYYCQSYDSSLSGWVFGGGTKLTVL
Take B2: the binding result in experiment [1] is listed as “binds”.

B3: VacW-209 Fab (Fab, V domains shown)
VH: QVQLVESGGGVVQPGRSLRLSCAASGFTFSSIAMHWVRQAPGKGLEWVAVMSFDGSIKYYGDSVKGRFTISRDNSKSTLYLQMNSLRAEDTAVYYCARGVQGYYDRSGYYNLDYNYGMDVWGQGTTVTVSS
VL: QSVLTQPPSVSGAPGQRVTISCTGSSSNIGAGYDVHWYQQLPGTAPKLLIYGNSNRPSGVPDRFSGSKSGTSASLAITGLQAEDEADYYCQSYDSSLSGWVFGGGTKLTVL
For B3, the binding result in experiment [2] is on record as “binds”.

B4: S2E12 recombinant antibody (human IgG constant region) (antibody, V domains shown)
VH: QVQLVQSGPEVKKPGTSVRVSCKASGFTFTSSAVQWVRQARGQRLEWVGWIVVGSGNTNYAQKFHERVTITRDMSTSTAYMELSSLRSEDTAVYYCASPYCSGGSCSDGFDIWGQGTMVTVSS
VL: DIVLTQTPGTLSLSPGERATLSCRASQSVSSSYLAWYQQKPGQAPRLLIYGASSRATGIPDRFSGSGSGTDFTLTISRLEPEDFAVYYCQQYVGLTGWTFGQGTKVEIK
Consider B4, for which the binding result in experiment [1] is given as “binds”.

B5: S2E12 Fab (Fab, V domains shown)
VH: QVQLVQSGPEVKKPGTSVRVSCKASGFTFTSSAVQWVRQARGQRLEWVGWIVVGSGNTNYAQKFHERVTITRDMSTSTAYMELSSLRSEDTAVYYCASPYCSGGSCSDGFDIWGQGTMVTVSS
VL: DIVLTQTPGTLSLSPGERATLSCRASQSVSSSYLAWYQQKPGQAPRLLIYGASSRATGIPDRFSGSGSGTDFTLTISRLEPEDFAVYYCQQYVGLTGWTFGQGTKVEIK
With B5, in experiment [2], the binding result is listed as “binds”.

B6: S2X35 recombinant antibody (human IgG constant region) (antibody, V domains shown)
VH: QVQLVQSGAEVKKPGASVKVSCKASGYTFTNYGISWVRQAPGQGLEWMGWISAYKGNTNYAQKLQGRVTMTTDTSTSTAYMELRSLRSDDTAVYYCARPDYQVLGYDFWIGYYGMDVWGQGTTVIVSS
VL: QSVLTQPPSVSGAPGQRVTISCTGSSSNIGAGYDVHWYQQLPGTAPKLLIYGNTNRPSGVPDRFSGSKSGTSASLAITGLQAEDEADYYCQSYDSSLSGSEVVFGGGTKLTVL
Take B6: the binding result in experiment [1] is given as “binds”.

B7: S2X35 Fab (Fab, V domains shown)
VH: QVQLVQSGAEVKKPGASVKVSCKASGYTFTNYGISWVRQAPGQGLEWMGWISAYKGNTNYAQKLQGRVTMTTDTSTSTAYMELRSLRSDDTAVYYCARPDYQVLGYDFWIGYYGMDVWGQGTTVIVSS
VL: QSVLTQPPSVSGAPGQRVTISCTGSSSNIGAGYDVHWYQQLPGTAPKLLIYGNTNRPSGVPDRFSGSKSGTSASLAITGLQAEDEADYYCQSYDSSLSGSEVVFGGGTKLTVL
Turning to B7, the binding result in experiment [2] is “binds”.
